Assay results published in patent US20240150462A1 (UNIVERSITY HEALTH NETWORK, published 2024).

What follows are binders tested against T1, Recombinant human Fc-tagged extracellular domain of LILRB1 (human, UniProt Q8NHL6 24-461) (assay: SPR, Biacore X100; LILRB1-Fc amine-coupled to CM5 chip, antibody injected at 3.7-300 nM).
T1 construct: extracellular domain; Bought from R&D Systems; also called LILRB1-Fc; not shown: Fc tag
Procedure: (§1) Dissociation constants (Kd) for mouse anti-human LILRB1 and LIRB2 antibodies were determined using a Biacore X100 surface plasmon resonance instrument (Cytivia). Recombinant human Fc-tagged extracellular domains of LILRB1 or LILRB2 (LILRB1-Fc or LILRB2-Fc; R&D Systems) were immobilized on a Biacore CM5 biosensor chip by amine coupling at a density of 40-50 relative units (RU). Purified mouse monoclonal antibodies were injected over the biosensor in a concentration series of 3.7, 11, 33, 100, and 300 nM in HBS-EP buffer (10 mM HEPS pH 7.4, […], 3 mM EDTA, 0.005% v/v Surfactant P20) at a flow rate of 50 μL/min. Regeneration of the chip was achieved by a 30 s injection of 10 mM glycine-HCl, pH 1.7. Affinity parameters were determined by fitting response data using the accompanying Biacore X100 analysis software.

T1 sequence (Q8NHL6 24-461): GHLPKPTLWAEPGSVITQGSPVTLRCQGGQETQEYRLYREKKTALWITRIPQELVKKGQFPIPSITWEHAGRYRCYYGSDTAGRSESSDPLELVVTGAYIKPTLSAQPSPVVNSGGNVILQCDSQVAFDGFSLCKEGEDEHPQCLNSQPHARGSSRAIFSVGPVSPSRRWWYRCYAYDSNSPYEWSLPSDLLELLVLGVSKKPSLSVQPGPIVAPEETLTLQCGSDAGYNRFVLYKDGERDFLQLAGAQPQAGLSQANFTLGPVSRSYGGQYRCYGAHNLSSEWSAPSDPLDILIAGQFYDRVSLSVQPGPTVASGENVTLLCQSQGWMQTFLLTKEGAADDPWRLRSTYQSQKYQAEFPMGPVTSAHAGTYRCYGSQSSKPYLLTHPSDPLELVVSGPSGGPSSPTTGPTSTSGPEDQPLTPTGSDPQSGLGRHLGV

Row | -log(Kd) | Binder
1 | 6.58 | 6B7 (antibody, V domains shown, Entries are printed with leader peptide and part of the mouse constant region; also called LILRB1 antibody 6B7) VH: QIQLVQSGPELKKPGETVKISCKASGYTFTNYGLSWVKQAPGKGLKWMGWINTYSGVTTYADDFKGRFAFSLETSASTAYLQINNLKSEDTATYFCARRSYDYSHYYAMDYWGQGTSVTVSS VL: ETTVTQSPASLSVATGEKVTIRCITSTDIDDDINWYQQKPGEPPKFLISEGNTLRPGVPSRFSSSGYGTDFVFTIENTLSEDVADYYCLQSNNMPYTFGGGTKLEIKR
2 | 11.6 | 3E12 (antibody, V domains shown, Entries are printed with leader peptide and part of the mouse constant region; also called LILRB1 antibody 3E12) VH: QVQLQQSGAELMKPGASVKLSCKATGYTFTGYWIEWVKQRPGHGLEWIGEILLGSGNTNYNENFKGKATLTADTSSNTAYMQLSSLTTEDSAIYYCASTHDGYWGQGTTLTVSS VL: QFILTQSPAIMSASPGEKVTITCSASSSVSYMHWFQQKPGTSPKLWIYSTSNLASGVPARFSGSGSGTSYSLTISRMEAEDAATYYCQRRSSYPFTFGSGTKLEIKR
3 | 12.6 | 4H5 (antibody, V domains shown, Entries are printed with leader peptide and part of the mouse constant region; also called LILRB1 antibody 4H5) VH: QIQLQQSGPELVKPGASVKISCKASGYTFTDYYINWVKQRPGQGLEWIGWIYPGGDNTKYNEKFKDKATLTVDTSSSTTYMQLSSLTSEDSAVYFCARFEDKYSSNYWFAYWGQGTLVTVSA VL: DILLTQSPAILSVSPGERVSFSCRASQYIGTSIHWYQQRTNGSPRLLIKYASESISGIPSRFSGSGSGTDFTLSINSVESEDVADYYCQQSNRWPFTFGSGTKLEIKR
4 | 12.4 | 6A11 (antibody, V domains shown, Entries are printed with leader peptide and part of the mouse constant region; also called LILRB1 antibody 6A11) VH: QIQLQQSGPELVKPGASVKISCKASGYTFTDYYINWVKQRPGQGLEWIGWIYPGSGNTKYNEKFKGKATLTVDTSSSTAYMQLSSLTSEDSAVYFCARFEDKHSSNYWFAYWGQGTLVTVSA VL: DILLTQSPAILSVSPGERVSFSCRASQYIGTSIHWYQQRTNGSPRLLIKYASESISGIPSRFSGSGSGTDFTLSINSVESEDIADYYCQQSNSWPFTFGSGTKLEIKR
5 | 8.76 | 5B3 (antibody, V domains shown, Entries are printed with leader peptide and part of the mouse constant region; also called LILRB1 antibody 5B3) VH: QVQLKESGPGLVAPSQSLSITCTVSGFSLTSYGIDWVRQPPGKGLEWLGVIWGGGNTNYNSALMSRLTISKDNSKSQVFLKMNSLQTDDTAMYYCAKANWDSYAMDYWGQGTSVTVSS VL: DIQMNQSPSSLSASLGDTITITCHASQNINFWLNWYQQKPGNIPKLLIYKASNLHTGVPSRFSGSGSGTGFTLTISSLQPEDIATYYCQQGQSYPLTFGGGTKVEIKR
6 | 12.7 | 4C2 (antibody, V domains shown, Entries are printed with leader peptide and part of the mouse constant region; also called LILRB1 antibody 4C2) VH: QVQLQQPGAALVKPGASVKLSCKASGYTFTSYWMHWVKQRPGQGLEWIGMIHPNSGSTNYNEKFRSEATLTVDKSSSTVYMQLSSLTSEDSAVYYCARSGDAYYDGLDYWGQGTSVTVSS VL: DIQMNQSPSSLSASLGDTITITCHARQNINVWLSWYQQKPGNIPKLLIYKASNLHTGVSSRFSGSGSGTGFTLTISSLQPEDIATYYCQQGQSYPWTFGGGTKLEIKR
7 | 7.98 | 6A6 (antibody, V domains shown, Entries are printed with leader peptide and part of the mouse constant region; also called LILRB1 antibody 6A6) VH: QVQLQQSGPELVKPGASVKISCKASGYSFTSSYIHWVKQRPGQGLEWIGWIYPGSGNTKYNERFKGKATLTADTSSSTAYMHLSSLTSEDSAVYYCARNYGTSYGWYFDVWGTGTTVTVSS VL: DIVMTQSQKFMSTTVGDRVSITCKASQNVGTAVAWYQQKPGQSPKLLIYSLSNRYTGVPDRFTGSGSGTDFTLTISNMQSEDLTDYFCQQYSSYPLTFGAGTKLELKR
8 | 8.13 | 1B10 (antibody, V domains shown, The entries called 'variable region' are printed with the leader peptide and part of the mouse constant region; also called LILRB1 antibody 1B10) VH: QVQLQQPGAELVKPGASVKLSCKASGYTFTNYWVQWVKQRPGQGLEWIGMIHPNSGSTNSNEKFKNKATLTVDRSSSTAYMQLSRLTSEDSAVYYCARGDDGYLYYFDYWGQGTTLTVSS VL: QIVLTQSPALMSASPGEKVTMTCSASSSVSHMYWYQQKPRSSPKPWIYLTSNLASGVPARFSGSGSGTSYSLTISNMEAEDAATYYCQQWSSYAFTFGSGTKLEIKR
9 | < 3 | 5E11 (antibody, V domains shown, Entries are printed with leader peptide and part of the mouse constant region; also called LILRB1 antibody 5E11) VH: QVQLKESGPGLVAPSQSLSITCTVSGFSLSSYGVNWVRQPPGKGLEWLGVIWGDGSTNYHSALISRLSISKDNSKSQVFLKLNSLQTDDTATYYCAKPNWDYYAMEYWGQGTSVTVSS VL: DIQMTQTTSSLSASLGDRVTITCRASQDISNFLNWYQQKPDGPVKLLIYYTSRLHSGVPSRFSGSGSGTDYSLTISNLEQEDIATYFCQQGNTLPWTFGGGTKLEIKR
10 | 8.26 | 5H12 (antibody, V domains shown, Entries are printed with leader peptide and part of the mouse constant region; also called LILRB1 antibody 5H12) VH: QVQLKESGPGLVAPSQSLSITCTVSGFSLSSYGVNWVRQPPGKGLEWLGVIWGDGSTNYHSALISRLSISKDNSKSQVFLKLNSLQTDDTATYYCAKPNWDYYAMEYWGQGTSVTVSS VL: GIVMTQSQKFMSSTVGDRVSITCKASQNVGAAVIWYQQKPGQSPKLLIYSASNRYTGVLDRFTGSGSGTDFTLTISNMQSEDLADYFCQQYSSYPWTFGGGTKLEIKR
11 | 7.89 | 4D5 (antibody, V domains shown, Entries are printed with leader peptide and part of the mouse constant region; also called LILRB1 antibody 4D5) VH: QVQLQQPGAELVRPGSSVKLSCKASGYTFTSYWMDWVKQRPGQGLEWIGNIYPSDSATHYNQKFKDKATLTVDKSSSTAYMHLSSLTSEDSAVYYCARGLLQYFDVWGTGTSVTVSS VL: DIQMTQSPASLSVSVGETVTITCRASENIYSNLAWYQQKQGKSPQLLVYGATNLADGVPSRFSGSGSGTQYSLKINSLQSEDFGSYYCQHFWGIPWTFGGGTKLEIKR
12 | 7.76 | 4A11 (antibody, V domains shown, Entries are printed with leader peptide and part of the mouse constant region; also called LILRB1 antibody 4A11) VH: QVQLKQSGAELVRPGTSVKLSCKASGYTFTDYYINWVKQRPGQGLEWIARIYPGSGNTFYNEKFQDKATLTAEKSSSTAYMQLSSLTSEDSAVYFCANTPSYGSSHWYFDVWGTGTTVTVSS VL: DIVMTQSHKFMSTSVGDRVSITCKASQDVNTAVAWYQQKPGQSPKLLIYWASTRHTGVPDRFTGSGSGTDFTLTISNVQSEDLADYFCQQYSTYPRTFGGGTKLEIKR
13 | 7.89 | 4A10 (antibody, V domains shown, Entries are printed with leader peptide and part of the mouse constant region; also called LILRB1 antibody 4A10) VH: QVQLQQPGAELVKPGASVKLSCKASGYTFTNYWMYWVKQRPGQGLEWIGMIHPNSDSTNYNEKFKNKATLTVDRSSSTAYMQLSSLTSEDSAVYCCARGEDNYDYVMDYWGQGTSVTVSS VL: DIVMTQAAPSVPVTPGESVSISCRSSKSLLHSYGNTHLYWFLQRPGQSPQLLIYRMSNLASGVPDRFSGSGSGTAFTLRISRVEAEDVGVYYCMQHLEYPLTFGAGTKLELKR
14 | 8.2 | 5E6 (antibody, V domains shown, Entries are printed with leader peptide and part of the mouse constant region; also called LILRB1 antibody 5E6) VH: QVQLQQSAAELVKPGASVKISCKVSGQSFTDHTIHWMKQRPEQGLEWIGYIFPRDGFTEYNERFKGKATLTADKSSSTAYMHLNSLTSEDSAVYFCAGNWDALDYWGPGTSVTVSS VL: DIVLTQSPATLSVTPGDSVSLSCRASQSISKYLHWYQQKSHESPRLLIKYVSQSISGIPSRFSGSGSGTDFTLSINSVETEDFGIYFCQQSNSWPLTFGAGTKLELKR

What follows are binders tested against T2, Recombinant human Fc-tagged extracellular domain of LILRB2 (human, UniProt Q8N423 22-460) (assay: SPR, Biacore X100; LILRB2-Fc amine-coupled to CM5 chip, antibody injected at 3.7-300 nM).
T2 construct: extracellular domain; Bought from R&D Systems; also called LILRB2-Fc; not shown: Fc tag
Procedure: as §1

T2 sequence (Q8N423 22-460): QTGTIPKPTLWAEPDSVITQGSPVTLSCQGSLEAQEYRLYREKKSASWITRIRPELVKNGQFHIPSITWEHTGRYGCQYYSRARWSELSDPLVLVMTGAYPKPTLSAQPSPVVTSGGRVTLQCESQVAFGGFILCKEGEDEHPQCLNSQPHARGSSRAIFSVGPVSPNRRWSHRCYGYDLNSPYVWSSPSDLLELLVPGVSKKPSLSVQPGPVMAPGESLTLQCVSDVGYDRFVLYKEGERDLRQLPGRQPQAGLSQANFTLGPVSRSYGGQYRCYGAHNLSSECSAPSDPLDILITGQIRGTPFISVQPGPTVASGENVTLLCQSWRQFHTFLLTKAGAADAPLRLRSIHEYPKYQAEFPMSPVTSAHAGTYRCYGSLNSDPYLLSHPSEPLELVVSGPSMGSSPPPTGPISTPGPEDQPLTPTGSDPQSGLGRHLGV

Row | -log(Kd) | Binder
15 | 8.4 | 2F10 (antibody, V domains shown, Entries are printed with leader peptide and part of the mouse constant region; also called LILRB2 antibody 2F10) VH: EVQLQQSGPELVKPGASVKISCKASGYTFTDDYMNWVKQSHGKSLEWIGDINPTNGDTNYNQKFKGKATLTVDKSSSTAYMELRGLTSEDSAVYYCARGSSPFTYWGQGTLVTVSA VL: DIQMTQTTSSLSASLGDRVTISCSASQGISNYLNWYQQKPDGTVKLLIYYTSSLYSGVPSRFSGSGSGTDYSLTISNLEPEDIATYYCQQYSKLPWTFGGGTKLEIKR
16 | 7.64 | 1C8 (antibody, V domains shown, Entries are printed with leader peptide and part of the mouse constant region; also called LILRB2 antibody 1C8) VH: EVKLVESGGGLVQPGGSLKLSCAASGFTFSDYYMYWVRQTPEKRLEWVAYISNGGGNTYYPDTVKGRFTISRDNAKNTLYLQMSRLKSEDTAMYYCARQLEDWYFDVWGTGTTVTVSS VL: DIVMTQSHKFMSTSVGDRVSITCKASQDVSTAVAWSQQKPGQSPKLLVYWASARHTGVPDRFTGSGSGADYTLTISSVQAEDLALYYCQQHFSTPLTFGAGTKLELKR
17 | 8.33 | 2G9 (antibody, V domains shown, Entries are printed with leader peptide and part of the mouse constant region; also called LILRB2 antibody 2G9) VH: EVKLVESGGGLVQPGGSLKLSCAASGFTFSDYYMYWVRQTPEKRLEWVAYISNGGGNTYYPDTVKGRFTISRDNAKNTLYLQMSRLKSEDTAMYYCARNRDDWYFDVWGTGTTVTVSS VL: not shown
18 | 7.79 | 1A8 (antibody, V domains shown, Entries are printed with leader peptide and part of the mouse constant region; also called LILRB2 antibody 1A8) VH: EVQLVESGGDLVKPGESLKLSCAASGFSFSSYDMSWVRQTPDKRLEWVTTISSGGDYTYFPDILKGRFTISRDNAKHTLYLQLSSLKSEDTAMYYCARWDSNFPHWYFDVWGTGTTVTVSS VL: DIVLTQSPASLAVSLGQRATISCRASESVDKSGISFLHWYQQKPRQPPKLLIYRASNLESGIPGRFSGSGSRTDFTLSINPVEPDDVATYYCQQSNKDPFTFGGGTKLEIKR
19 | 8.05 | 1G3 (antibody, V domains shown, Entries are printed with leader peptide and part of the mouse constant region; also called LILRB2 antibody 1G3) VH: EVQLVESGGDLVKPGGSLKLSCAASGFTFSSYDMSWVRQTPDKRLEWVATISSGGSYTFYPDSVKGRFTISRDNAKNTLSLQMSSLKSEDTAIYYCARWDSNYLRWFFDVWGTGTTVTVSS VL: DIVLTQSPASLAVSLGQRATISCRASESVDNNGISFMHWYQQKPGQSPKLLIYRASNLESGIPARFSGSGSRTDFTLTINPVETDDVATYYCQQSNDDPFTFGGGTKLEIKR
20 | 7.95 | 10F5 (antibody, V domains shown, Entries are printed with leader peptide and part of the mouse constant region; also called LILRB2 antibody 10F5) VH: EVQLVESGGDLVKPGGSLKLSCAASGFTFSSYDMSWVRQTPDKRLEWVATISSGASYTYYPDSVKGRFTISRDNAKNTLYLQMSSLKSEDTAIYYCARWDSKYLRWYFDVWGTGTTVTVSS VL: DIVLTQSPASLAVSLGQRATISCRASESVDNNGISFMHWYQQKPGQSPKLLISRASNLESGIPARFSGSGSRTDFTLTINPVETDDVATYYCQQSNEDPFTFGGGTKLEIKR
